In article doi:10.1101/2024.09.07.611787, “Molecular glues that inhibit deubiquitylase activity and inflammatory signalling” (bioRxiv, 2024) one finds Kd, KD after incubation with FX-171-C and KD after incubation with JMS-175-2 data, which are given here for 1 substance.

The target of assay [1] is His-tagged BRISC labelled with RED-tris-NTA dye (human) (UniProt P46736). The assay can be described thus: spectral shift (Dianthus); 12.5 nM RED-tris-NTA labelled His-BRISC, SHMT2(A285T) titrated 46 uM to 1.4 nM, no compound (1% DMSO); 25 mM HEPES pH 7.5, 150 mM NaCl, 1 mM DTT, 0.005% Tween-20, 25 °C; one-site total binding.
For assay [2] the target is unchanged. Briefly: spectral shift (Dianthus); as a16, labelled His-BRISC first incubated with 100 uM FX-171-C (1% DMSO) for 15 min at RT.
Assay [3] has the same target. Briefly: spectral shift (Dianthus); as a16, labelled His-BRISC first incubated with 100 uM JMS-175-2 (1% DMSO) for 15 min at RT.

For the substance “SHMT2ΔN(A285T) (residues 18–504) (from UniProt P34897 18-504) (enzyme)”, in assay [1], the dissociation constant Kd (commonly a measure of binding affinity in units of concentration) is 400 nM. In assay [2], the KD after incubation with FX-171-C is 3600 nM. Further, in assay [3], the KD after incubation with JMS-175-2 stood at 700 nM.
